From article PMC5598764

Target: Porcine skeletal actin, pyrene-labeled (porcine) (UniProt P68137)
Assay: stopped-flow fluorescence

kon: 0.35 M⁻¹ s⁻¹
Substance: Cardiac myosin from porcine left ventricular tissue (from UniProt P79293 1-1935) (complex)
